Key:
[1] = tested on: HPPD polypeptides (wild-type SEQ ID NO:1 and mutants); conditions: low substrate concentration; for Residual activity: kapp in presence of 50 μM Cmpd. 1, normalised to kapp without inhibitor; for Residual turnover: total change in signal in presence of 50 μM Cmpd. 1, normalised to that without inhibitor
Method: For the generation of crude HPPD polypeptide extract in micro titer plates (MTP) for the determination of residual activity in inhibition assays, cells were grown in 40 or 150 μl LB medium containing 1% Glucose (Merck, Darmstadt, Germany) and 100 μg/ml ampicillin in a standard 96 well plate (Thermo Fisher Scientific, Waltham, USA) incubated for about 18 h in a humidity incubator at 37° C.
30 μl of this starter culture were added to 600 μl LB medium containing 100 μg/ml ampicillin and 150 mM Hepes (Merck, Darmstadt, Germany) as inoculum for the expression culture in 96 well plates (2 ml deep wells; HJ Bioanalytik, Erkelenz, Germany) The plates were sealed by an aluminium foil, and cells were incubated for 5 h at 37° C. on a plate shaker at 750 rpm. The expression was induced by addition of IPTG in a final concentration of 1 mM followed by further sealed incubation for about 18 h at 30° C. on a plate shaker at 750 rpm.
Cells were harvested by centrifugation at 4° C., 2500 g for 15 min discarding the supernatant. Cell pellets were stored at −80° C. and lysed in 250 μl 1× BugBuster® (Merck, Darmstadt, Germany) in 140 mM Tris (pH 7.8), with 1:25000 diluted BNase® (Qiagen, Hilden, Germany) by incubation of the resuspended cells for 30 min at 4° C. and 1000 rpm. Lysates were clarified by centrifugation for 15 min at 4° C., 2500 g, and 150 μl supernatant were transferred in standard 96 well plate (Thermo Fisher Scientific, Waltham, USA) for subsequent testing in quadruplets.
The activity of HPPD polypeptides was determined in absence or presence of HPPD inhibitors using the coupled HPPD activity assay (FIG. 1).
For the determination of the residual activity, the apparent kinetic constant (kapp) of the determined substrate conversion was measured as kinetic changes in absorbance at 320 nm in a coupled assay, in that homogentisate (HGA) formed by HPPD from HPP is directly converted into the well absorbing molecule maleylacetoacetate (MAA) by a second enzyme homogentisate dioxygenase (HGD), applied in excess uniformly in all assays (see FIG. 1). The measurements were performed in 384 micro titer plates (Greiner Bio-One GmbH, Frickenhausen, Germany) by plate readers (Tecan infinite M1000 or M1000PRO, Tecan, Männedorf, Switzerland). The kcat/kM ratio of an enzymatic activity is proportional to the apparent kinetic constant kapp and is proportional to kcat/kM*[E] ([E]=enzyme concentration). […] As both kapp measurements in the presence and absence of inhibitor were performed by use of the identical enzyme sample, crude or purified, and thereby at the same enzyme concentration, the enzyme concentration eliminates from the calculation of residual activity and the ratio of both kapp directly indicates the change of kM due to the inhibition.

[2] = tested on: transgenic soybean T0 events; test: Additional greenhouse trials of T0 soybean events, leaf damage score 0-100 as percentiles; type: in vivo; conditions: Cmpd. 1 300 g AI/ha, five days; for leaf damage score, Interquartile range: 75th minus 25th percentile; for leaf damage score, 25th percentile: scale 0 (no damage) to 100 (complete bleaching); for leaf damage score, 75th percentile / leaf damage score, 90th percentile / leaf damage score, Median: scale 0-100
Text: In additional greenhouse trials, 21 to 94 independent T0 soybean events per construct containing an exemplary mutant HPPD polypeptide were sprayed with the HPPD inhibitor herbicide Cmpd. […] Five days after the application, the leaf damaged area due to the HPPD inhibitor herbicide is scored in a scale from 0 (no damage) to 100 (complete bleaching). Under those conditions, the wild-type plants were completely bleached and their damage scores were in the 95-100 range.
Table 9 presents the distribution of the HPPD inhibitor herbicide damage score data as percentile for exemplary mutant HPPD inhibitor herbicide tolerant polypeptides (SEQ ID NOs). The percentiles normalize ranks of the damage score from an individual plant in a population. […] The median is the 50th percentile. Half the values had higher damage scores; half had lower damage scores. […] The difference between the 75th and 25th percentile is called the interquartile range and a marker to quantify scattering in the population. All constructs had only one single cassette insertion in the soybean genome.
In Table 9, the constructs were ranked based on injury scores according to the 75th percentile, from smallest to highest score. All exemplary HPPD polypeptide variants are better in all percentile analyses than the prior art mutant HPPD polypeptide (WO2014/043435) corresponding to SEQ ID NO:2 in this invention. The scoring of the prior art mutant HPPD polypeptide (WO2014/043435) corresponding to SEQ ID NO:2 in this invention is listed in the bottom row of Table 9.

Row | Molecule | Residual activity [1] [%] | Residual turnover [1] [%] | leaf damage score, Interquartile range [2] | leaf damage score, 25th percentile [2] | leaf damage score, 75th percentile [2] | leaf damage score, 90th percentile [2] | leaf damage score, Median [2]
1 | 36 (protein, mutant HPPD polypeptide) MADLYENPMGLMGFEFIEFASPTPGTLEPIFEIMGFTKVATHRSKNVHLYRQGEINLILNNEPNSIASYFAAEHGPSVCGMAFRVKDSQKAYNRALELGAQPIHIDTGPMELNLPAIKGIGGAPLYLIDRFGEGSSIYDIDFVYLEGVERNPVGAGLKVIDHLTHNVYRGRMVYWANFYEKLFNFREARYFDIKGEYTGLTSKAMSAPDGMIRIPLNEESSKGAGQIEEFLMQFNGEGIQHVAFLTDDLVKTWDALKKIGMRFRTAPGDEYYEMLEGRLPDHGEPVDQLQARGILLDGSSVEGDKRLLLQIFSETLMGPVFFEFIQRKGHDGFGPDSFKVLFESMERDQVRRGVLTAD | 67 | 85 | – | – | – | – | –
2 | 38 (protein, mutant HPPD polypeptide) MADLYENPMGLMGFEFIEFASPTPGTLEPIFEIMGFTKVATHRSKNVHLYRQGEINLILNNEPNSIASYFAAEHGPSVCGMAFRVKDSQKAYNRALELGAQPIHIDTGPMELNLPAIKGIGGAPLYLIDRFGEGSSIYDIDFVYLEGVERNPVGAGLKVIDHLTHNVYRGRMVYWANFYEKLFNFREARYFDIKGEYTGLTSKAMSAPDGMIRIPLNEESSKGAGQIEEFLMQFNGEGIQHVAFLTDDLVKTWDALKKIGMRFMTAPGDEYYEMLEGRLPDHGEPVDQLQARGILLDGSSVEGDKRLLLQIFSETLMGPVFFEFIQRKGVDGFGPDSFKVLFESVERDQVRRGVLTAD | 78 | 94 | – | – | – | – | –
3 | SEQ ID NO: 101: mutant HPPD polypeptide: M264L P268G T270E T315R E335P G336D N337S A340V S344Q I345M (protein, mutant HPPD polypeptide, mutant HPPD polypeptide: M264L P268G T270E T315R E335P G336D N337S A340V S344Q I345M) MADLYENPMGLMGFEFIEFASPTPGTLEPIFEIMGFTKVATHRSKNVHLYRQGEINLILNNEPNSIASYFAAEHGPSVCGMAFRVKDSQKAYNRALELGAQPIHIDTGPMELNLPAIKGIGGAPLYLIDRFGEGSSIYDIDFVYLEGVERNPVGAGLKVIDHLTHNVYRGRMVYWANFYEKLFNFREARYFDIKGEYTGLTSKAMSAPDGMIRIPLNEESSKGAGQIEEFLMQFNGEGIQHVAFLTDDLVKTWDALKKIGMRFLTAPGDEYYEMLEGRLPDHGEPVDQLQARGILLDGSSVEGDKRLLLQIFSERLMGPVFFEFIQRKGDDGFGPDSFKVLFEQMERDQVRRGVLTAD | – | – | 10.0 | 5.0 | 15.0 | 49.0 | 10.0
4 | SEQ ID NO: 22: mutant HPPD polypeptide: E335P G336H N337S A340V (protein, mutant HPPD polypeptide, mutant HPPD polypeptide: E335P G336H N337S A340V) MADLYENPMGLMGFEFIEFASPTPGTLEPIFEIMGFTKVATHRSKNVHLYRQGEINLILNNEPNSIASYFAAEHGPSVCGMAFRVKDSQKAYNRALELGAQPIHIDTGPMELNLPAIKGIGGAPLYLIDRFGEGSSIYDIDFVYLEGVERNPVGAGLKVIDHLTHNVYRGRMVYWANFYEKLFNFREARYFDIKGEYTGLTSKAMSAPDGMIRIPLNEESSKGAGQIEEFLMQFNGEGIQHVAFLTDDLVKTWDALKKIGMRFMTAPPDTYYEMLEGRLPDHGEPVDQLQARGILLDGSSVEGDKRLLLQIFSETLMGPVFFEFIQRKGDDGFGPHSFKVLFESIERDQVRRGVLTAD | – | – | 5.0 | 10.0 | 15.0 | 34.5 | 10.0
5 | 50 (protein, mutant HPPD polypeptide) MADLYENPMGLMGFEFIEFASPTPGTLEPIFEIMGFTKVATHRSKNVHLYRQGEINLILNNEPNSIASYFAAEHGPSVCGMAFRVKDSQKAYNRALELGAQPIHIDTGPMELNLPAIKGIGGAPLYLIDRFGEGSSIYDIDFVYLEGVERNPVGAGLKVIDHLTHNVYRGRMVYWANFYEKLFNFREARYFDIKGEYTGLTSKAMSAPDGMIRIPLNEESSKGAGQIEEFLMQFNGEGIQHVAFLTDDLVKTWDALKKIGMRFMTAPGDEYYEMLEGRLPDHGEPVDQLQARGILLDGSSVEGDKRLLLQIFSETLMGPVFFEFIQRKGDPGFGPDSFKVLFESVERDQVRRGVLTAD | 46 | 80 | – | – | – | – | –
6 | SEQ ID NO: 105: mutant HPPD polypeptide: R213K M264L P268G T270E E335P G336H N337S A340R S344Q I345M (protein, mutant HPPD polypeptide, mutant HPPD polypeptide: R213K M264L P268G T270E E335P G336H N337S A340R S344Q I345M) MADLYENPMGLMGFEFIEFASPTPGTLEPIFEIMGFTKVATHRSKNVHLYRQGEINLILNNEPNSIASYFAAEHGPSVCGMAFRVKDSQKAYNRALELGAQPIHIDTGPMELNLPAIKGIGGAPLYLIDRFGEGSSIYDIDFVYLEGVERNPVGAGLKVIDHLTHNVYRGRMVYWANFYEKLFNFREARYFDIKGEYTGLTSKAMSAPDGMIKIPLNEESSKGAGQIEEFLMQFNGEGIQHVAFLTDDLVKTWDALKKIGMRFLTAPGDEYYEMLEGRLPDHGEPVDQLQARGILLDGSSVEGDKRLLLQIFSETLMGPVFFEFIQRKGDDGFGPHSFKRLFEQMERDQVRRGVLTAD | – | – | 10.0 | 5.0 | 15.0 | 70.0 | 10.0
7 | 48 (protein, mutant HPPD polypeptide) MADLYENPMGLMGFEFIEFASPTPGTLEPIFEIMGFTKVATHRSKNVHLYRQGEINLILNNEPNSIASYFAAEHGPSVCGMAFRVKDSQKAYNRALELGAQPIHIDTGPMELNLPAIKGIGGAPLYLIDRFGEGSSIYDIDFVYLEGVERNPVGAGLKVIDHLTHNVYRGRMVYWANFYEKLFNFREARYFDIKGEYTGLTSKAMSAPDGMIRIPLNEESSKGAGQIEEFLMQFNGEGIQHVAFLTDDLVKTWDALKKIGMRFMTAPGDEYYEMLEGRLPDHGEPVDQLQARGILLDGSSVEGDKRLLLQIFSETLMGPVFFEFIQRKGDHGFGPDSFKVLFESVERDQVRRGVLTAD | 47 | 74 | – | – | – | – | –
8 | 45 (protein, mutant HPPD polypeptide) MADLYENPMGLMGFEFIEFASPTPGTLEPIFEIMGFTKVATHRSKNVHLYRQGEINLILNNEPNSIASYFAAEHGPSVCGMAFRVKDSQKAYNRALELGAQPIHIDTGPMELNLPAIKGIGGAPLYLIDRFGEGSSIYDIDFVYLEGVERNPVGAGLKVIDHLTHNVYRGRMVYWANFYEKLFNFREARYFDIKGEYTGLTSKAMSAPDGMIRIPLNEESSKGAGQIEEFLMQFNGEGIQHVAFLTDDLVKTWDALKKIGMRFMTAPGDEYYEMLEGRLPDHGEPVDQLQARGILLDGSSVEGDKRLLLQIFSERLMGPVFFEFIQRKGDDGFGPDSFKVLFESVERDQVRRGVLTAD | 39 | 68 | – | – | – | – | –

Reference: US10597674B2, “HPPD variants and methods of use” (BASF Agricultural Solutions Seed, US LLC, priority 2015, dated 2020)
